Experiments:
Assay type in all cases: biochemical, Arabidopsis thaliana
Details in all cases: 1 mM MnCl2, 0.5 mM dithiothreitol, 50 mM Tris-HCl pH 7.4, 32 °C
[1] = system: O=C(O)CC[C@H](NC(=O)Cc1c[nH]c2ccccc12)C(=O)O; assay: HPLC of hydrolysis product, kinetics
[2] = system: O=C(O)C[C@H](NC(=O)CC1C(=O)Nc2ccccc21)C(=O)O; assay: HPLC of hydrolysis product, kinetics
[3] = system: O=C(O)C[C@H](NC(=O)Cc1c[nH]c2ccccc12)C(=O)O; assay: HPLC of hydrolysis product, kinetics
[4] = system: O=C(O)CC[C@H](NC(=O)CC1C(=O)Nc2ccccc21)C(=O)O; assay: HPLC of hydrolysis product, Lineweaver-Burk

GST-ILR1 (Arabidopsis thaliana), sequence (chain, as listed by the source): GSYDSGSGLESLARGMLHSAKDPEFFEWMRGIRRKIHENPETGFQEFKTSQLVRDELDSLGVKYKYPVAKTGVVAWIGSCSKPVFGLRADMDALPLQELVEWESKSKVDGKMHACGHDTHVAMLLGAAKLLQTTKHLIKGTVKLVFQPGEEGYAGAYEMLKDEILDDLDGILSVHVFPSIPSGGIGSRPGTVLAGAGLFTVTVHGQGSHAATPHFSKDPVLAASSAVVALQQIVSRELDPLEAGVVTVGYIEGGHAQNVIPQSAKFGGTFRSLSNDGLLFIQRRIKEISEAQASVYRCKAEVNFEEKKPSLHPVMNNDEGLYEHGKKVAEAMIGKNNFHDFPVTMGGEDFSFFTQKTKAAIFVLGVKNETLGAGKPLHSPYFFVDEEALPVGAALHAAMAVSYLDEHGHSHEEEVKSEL

## GST-ILR1 (Arabidopsis thaliana)
[1]
  Km: 59.9723 ± 7.5726 µM
  kcat: 0.021 s⁻¹
[2]
  Km: 130.125 ± 25.3236 µM
  kcat: 0.0036 s⁻¹
[3]
  Km: 340.087 ± 41.4597 µM
  kcat: 0.0025 s⁻¹
[4]
  Km: 2.71 ± 0.34 µM
  kcat: 0.0089 s⁻¹

Source: article PMC8608799, “The main oxidative inactivation pathway of the plant hormone auxin” (Nature Communications, 2021)
